From paper doi:10.1101/2024.02.15.580443 come the findings set out here.

Like-named read-outs stand apart in the source and are kept apart here.

Assay [1] has as its target ComM from Legionella pneumophila (C-terminal His6-tag) (Legionella pneumophila Paris) (UniProt Q5ZXZ0). Description: cryo-EM structure.
Assay [2] shares this target. Nature of the assay: cryo-EM structure. This is another data set of the same source.
Assay [3] has as its target RadA from Streptococcus pneumoniae (strep-tagged, for cryoEM) (Streptococcus pneumoniae) (UniProt Q8DRP0). Nature of the assay: cryo-EM structure.
Assay [4] concerns the target RadA R301A mutant from Streptococcus pneumoniae (for biochemical assays) (Streptococcus pneumoniae (R800 derivative strain)) (UniProt Q8DRP0).

The term stoichiometry N denotes a count of units in the complex or per binding partner. “ComM from Legionella pneumophila (C-terminal His6-tag) (from UniProt Q5ZXZ0 1-503) (enzyme)”: the figures for the stoichiometry N in assay [1] and in assay [2] were 12 and 6, respectively.

“RadA from Streptococcus pneumoniae (strep-tagged, for cryoEM) (from UniProt Q8DRP0 1-420) (enzyme)” yielded a stoichiometry N in assay [3] of 6.

“RadA R301A mutant from Streptococcus pneumoniae (for biochemical assays) (from UniProt Q8DRP0 2-419) (enzyme)” showed a stoichiometry N in assay [4] of 6.
